Laboratory results reported in patent publication US20240034793A1 (Bristol-Myers Squibb, published 2024).

Experiments:
[1] = molecular target: human PD-L1 (hPD-L1), Programmed Death Ligand-1, cell surface expressed (human) (UniProt Q9NZQ7); test: IHC histoscore (0-300), FFPE NSCLC sample 1080754B
[2] = molecular target: human PD-L1 (hPD-L1), Programmed Death Ligand-1, cell surface expressed (human) (UniProt Q9NZQ7); test: IHC histoscore (0-300), FFPE Mel sample T030668
[3] = molecular target: human PD-L1 (hPD-L1), Programmed Death Ligand-1, cell surface expressed (human) (UniProt Q9NZQ7); test: IHC histoscore (0-300), FFPE Mel sample T980744
[4] = molecular target: human PD-L1 (hPD-L1), Programmed Death Ligand-1, cell surface expressed (human) (UniProt Q9NZQ7); test: IHC histoscore (0-300), FFPE Mel sample 1168657B
[5] = molecular target: human PD-L1 (hPD-L1), Programmed Death Ligand-1, cell surface expressed (human) (UniProt Q9NZQ7); test: IHC histoscore (0-300), FFPE NSCLC sample 1080790
[6] = molecular target: human PD-L1 (hPD-L1), Programmed Death Ligand-1, cell surface expressed (human) (UniProt Q9NZQ7); test: IHC histoscore (0-300), FFPE RCC sample 1167809B
[7] = molecular target: human PD-L1 (hPD-L1), Programmed Death Ligand-1, cell surface expressed (human) (UniProt Q9NZQ7); test: IHC histoscore (0-300), FFPE NSCLC sample 1080993B
[8] = molecular target: human PD-L1 (hPD-L1), Programmed Death Ligand-1, cell surface expressed (human) (UniProt Q9NZQ7); test: IHC histoscore (0-300), FFPE RCC sample 1164619B
[9] = molecular target: human PD-L1 (hPD-L1), Programmed Death Ligand-1, cell surface expressed (human) (UniProt Q9NZQ7); test: IHC histoscore (0-300), FFPE NSCLC sample 1080766B
[10] = molecular target: T1, human PD-L1 (hPD-L1), Programmed Death Ligand-1, cell surface expressed (human, UniProt Q9NZQ7 19-290); test: competition flow cytometry on ES-2 cells: unlabelled mAb titrated, then biotin-12A4 at 0.4 ug/ml, streptavidin-PE
T1 construct: whole, on cells; In the IHC assays the cells and tissues were formalin-fixed and paraffin-embedded (FFPE); also called membranous PD-L1
Method: Anti-PD-L1 HuMAbs 5F8, 12B7, 3G10, 1B12, 13G4, 10H10, 10A5 and 12A4, and a human IgG1 (huIgG1) isotype control Ab were serially diluted from 10 μg/ml and incubated with hPD-L1-expressing ES-2 ovarian carcinoma cells for 20 minutes at 4° C. Without washing, biotinylated-12A4 Ab was added to a final concentration of 0.4 μg/ml for an additional 20 minutes at 4° C.

human PD-L1 (hPD-L1), Programmed Death Ligand-1, cell surface expressed (human), sequence (Q9NZQ7 19-290): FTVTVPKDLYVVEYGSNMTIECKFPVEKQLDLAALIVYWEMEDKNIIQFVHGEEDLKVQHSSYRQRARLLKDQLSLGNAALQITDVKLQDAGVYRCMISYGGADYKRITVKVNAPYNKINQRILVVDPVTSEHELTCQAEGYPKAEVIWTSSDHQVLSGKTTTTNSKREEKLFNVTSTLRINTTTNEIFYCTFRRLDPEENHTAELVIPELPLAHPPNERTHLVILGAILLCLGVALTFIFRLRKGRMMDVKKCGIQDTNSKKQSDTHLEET
T1 sequence (Q9NZQ7 19-290): as above

Question: Which results are given for “murine anti-human PD-L1 mAb 5H1 (Dong et al., 2002) (antibody)”?
Answer: Histoscore Average [1]: 245; Histoscore Average [2]: 98; Histoscore Average [3]: 98; Histoscore Average [4]: 0; Histoscore Average [5]: 40; Histoscore Average [6]: 108; Histoscore Average [7]: 12; Histoscore Average [8]: 4; Histoscore Average [9]: 103

B1: anti-PD-L1 HuMAb 3G10 (antibody, V domains shown)
VH: QVQLVQSGAEVKKPGASVKVSCKASGYTFTDYGFSWVRQAPGQGLEWMGWITAYNGNTNYAQKLQGRVTMTTDTSTSTVYMELRSLRSDDTAVYYCARDYFYGMDVWGQGTTVTVSS
VL: EIVLTQSPATLSLSPGERATLSCRASQSVSSYLVWYQQKPGQAPRLLIYDASNRATGIPARFSGSGSGTDFTLTISSLEPEDFAVYYCQQRSNWPRTFGQGTKVEIK
notes: Human mAb; used unconjugated and FITC-conjugated
Question: How did the “IC50 (read off the curve)” value [10] turn out when B1 was run?
Answer: ~1 nM
